In data set [1] the test system is T1, PoAAO.
T1 construct: gene AAO; 60,903 Da
Nature of the data set: steady-state kinetics, absorbance of aldehyde formed. The format is biochemical, Pleurotus ostreatus. Particulars: apparent, air-saturated (0.256 mM O2), 50 mM NaPi pH 6.0, 25°C. From the text:
steady-state kinetics, absorbance of aldehyde formed on PoAAO | The three enzymes oxidized the whole spectrum of alcohols although with different catalytic efficiencies.

The next data set concerns the target T2, BaAAO (Bjerkandera adusta, UniProt A0ABF7PQ87).
T2 construct: 62,610 Da; one cysteine
T2 sequence (A0ABF7PQ87 1-580): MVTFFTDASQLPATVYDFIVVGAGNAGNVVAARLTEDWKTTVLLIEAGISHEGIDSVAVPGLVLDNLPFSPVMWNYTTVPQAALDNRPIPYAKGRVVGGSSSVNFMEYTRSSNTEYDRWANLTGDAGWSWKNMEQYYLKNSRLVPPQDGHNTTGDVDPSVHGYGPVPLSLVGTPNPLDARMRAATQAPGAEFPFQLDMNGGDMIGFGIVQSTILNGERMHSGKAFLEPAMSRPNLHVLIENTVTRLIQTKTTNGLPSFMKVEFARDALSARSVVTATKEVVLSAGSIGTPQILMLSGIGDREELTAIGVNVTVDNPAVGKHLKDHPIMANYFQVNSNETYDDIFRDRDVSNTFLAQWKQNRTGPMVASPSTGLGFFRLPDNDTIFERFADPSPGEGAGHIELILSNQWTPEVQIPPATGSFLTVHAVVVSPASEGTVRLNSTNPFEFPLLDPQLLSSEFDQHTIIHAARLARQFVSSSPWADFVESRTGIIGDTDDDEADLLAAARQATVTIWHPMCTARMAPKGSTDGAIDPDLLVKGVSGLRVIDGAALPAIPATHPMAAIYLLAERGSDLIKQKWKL
The experiment in a line: bi-substrate steady-state kinetics, anaerobic, BQ reduction at […] nm. As to conditions: electron acceptor, p-methoxybenzyl alcohol as co-substrate (varied), ping-pong fit, 50 mM NaPi pH 6.0, 25°C. In kind it is biochemical.

The test system of data set [2] is T3, PoAAO.
T3 construct: gene AAO
As to conditions: read-out: Km(acceptor); electron acceptor; p-methoxybenzyl alcohol as co-substrate (varied), ping-pong fit, anaerobic, 50 mM NaPi pH 6.0, 25°C.

Another data set addresses T4, PeAAO (Pleurotus eryngii, UniProt O94219).
T4 construct: gene aao; 61,847 Da
T4 sequence (O94219 28-593): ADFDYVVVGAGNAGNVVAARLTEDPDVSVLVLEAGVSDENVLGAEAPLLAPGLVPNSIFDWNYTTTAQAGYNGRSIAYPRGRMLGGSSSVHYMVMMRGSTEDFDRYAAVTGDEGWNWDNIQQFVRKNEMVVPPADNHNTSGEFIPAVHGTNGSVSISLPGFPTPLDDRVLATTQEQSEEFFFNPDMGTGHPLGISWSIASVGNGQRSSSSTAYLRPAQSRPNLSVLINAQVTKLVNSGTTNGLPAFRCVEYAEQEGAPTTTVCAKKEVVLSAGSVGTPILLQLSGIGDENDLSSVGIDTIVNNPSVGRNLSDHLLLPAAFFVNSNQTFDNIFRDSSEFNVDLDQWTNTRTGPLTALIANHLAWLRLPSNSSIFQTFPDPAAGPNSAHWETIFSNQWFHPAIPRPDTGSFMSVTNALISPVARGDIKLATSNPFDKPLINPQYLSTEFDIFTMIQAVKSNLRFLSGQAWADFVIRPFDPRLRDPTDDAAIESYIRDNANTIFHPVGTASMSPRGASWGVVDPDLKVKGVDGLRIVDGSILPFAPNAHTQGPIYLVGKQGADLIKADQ
The experiment in a line: bi-substrate steady-state kinetics, anaerobic, BQ reduction at […] nm. The format is biochemical. Particulars: electron acceptor, p-methoxybenzyl alcohol as co-substrate (varied), ping-pong fit, 50 mM NaPi pH 6.0, 25°C.

Substrate in data set [3]: CC=CC=CCO
The experiment in a line: steady-state kinetics, absorbance of aldehyde formed. The format is biochemical, Pleurotus eryngii. As to conditions: apparent, air-saturated (0.256 mM O2), 50 mM NaPi pH 6.0, 25°C. From the text: (§1) steady-state kinetics, absorbance of aldehyde formed on PeAAO | The three enzymes oxidized the whole spectrum of alcohols although with different catalytic efficiencies.

Substrate in data set [4]: COc1ccc(CO)cc1Cl
The description is as above. The format is biochemical, Pleurotus eryngii. As to conditions: apparent, air-saturated (0.256 mM O2), 50 mM NaPi pH 6.0, 25°C.
From the text: as §1

Substrate in data set [5]: OCc1cccc(Cl)c1
Nature of the data set: purified protein, by the assay type. On the set-up: steady-state kinetics, spectrophotometric alcohol oxidation to aldehyde, air-saturated 50 mM NaPi pH 6.0, 25 C. As to conditions: pH 6.0. How it is done:
Steady-state kinetic parameters were measured spectrophotometrically by monitoring the oxidation of the different alcohols to the corresponding aldehydes—Δε285, 16,950 M^−1 cm^−1 for [compound left out]; Δε240, 5,923 M^−1 cm^−1 for 3-chloro-benzyl alcohol; Δε309, 8,332 M^−1 cm^−1 for vanillyl alcohol; Δε307, 7,383 M^−1 cm^−1 for [compound left out]; Δε280, 30,140 M^−1 cm^−1 for 2,4-hexadien-1-ol from ([15]); Δε295, 15,000 M^−1 cm^−1 for 3-chloro-p-mehxoybenzyl alcohol from ([38]); and Δε310, 9,300 M^−1 cm^−1 for [compound left out] from Guillén et al. ([59])—in air-saturated (0.256 mM O2 concentration) 50 mM NaPi, pH 6.0, at 25°C. Steady-state kinetic analyses and statistical fits were performed using the SigmaPlot program. Apparent kinetic parameters in atmospheric oxygen were determined by fitting initial reaction rates (v0) at different alcohol concentrations to the Michaelis-Menten equation (equation 1). (1) v0/e = kcat[A]/Km + [A] The steady-state curves and resulting kinetic parameters for oxidation of different alcohols under atmospheric conditions with O2 as an electron acceptor were compared for PoAAO, BaAAO, and PeAAO (Fig. S4 and Table S1). The three enzymes oxidized the whole spectrum of alcohols although with different catalytic efficiencies.

Substrate in data set [6]: COc1cc(CO)ccc1O
The experiment in a line: steady-state kinetics, absorbance of aldehyde formed. In kind it is biochemical, Bjerkandera adusta. Particulars: apparent, air-saturated (0.256 mM O2), 50 mM NaPi pH 6.0, 25°C. The text has this: (§2) steady-state kinetics, absorbance of aldehyde formed on BaAAO | The three enzymes oxidized the whole spectrum of alcohols although with different catalytic efficiencies.

Substrate in data set [7]: CC=CC=CCO
The description is as above. In kind it is biochemical, Bjerkandera adusta. As to conditions: apparent, air-saturated (0.256 mM O2), 50 mM NaPi pH 6.0, 25°C.
From the text: as §2

Substrate in data set [8]: OCc1cccc(Cl)c1
The description is as above. In kind it is biochemical, Bjerkandera adusta. Particulars: apparent, air-saturated (0.256 mM O2), 50 mM NaPi pH 6.0, 25°C.
From the text: as §2

Substrate in data set [9]: COc1ccc(CO)cc1Cl
The data set is described as above. In kind it is biochemical, Bjerkandera adusta. Particulars: apparent, air-saturated (0.256 mM O2), 50 mM NaPi pH 6.0, 25°C.
From the text: as §2

By Km is commonly meant the substrate concentration at which the rate is half of its maximum. As a reminder, the kcat is the number of substrate molecules converted per active site and unit of time at saturation.

Like-named read-outs stand apart in the source and are kept apart here.

Regarding `COc1ccc(CO)cc1O` [isovanillyl alcohol], the Km in the data set with PoAAO [1] came to 713 ± 44 µM.
As for `O=C1C=CC(=O)C=C1` [BQ, p-benzoquinone], the values for the Km at BaAAO, with PoAAO [2] and at PeAAO were 70 ± 9 µM, 33 ± 4 µM and 48 ± 6 µM, respectively.
For `CC=CC=CCO` [2,4-hexadien-1-ol], in the data set with PoAAO [1], the Km amounted to 86 ± 4 µM.
`COc1ccc(CO)cc1OC` [veratryl alcohol]: the Km in the data set on PoAAO [1] was found to be 212 ± 11 µM.
Same read-out and setting: in the case of `OCc1cccc(Cl)c1` [3-chlorobenzyl alcohol] it was 80 ± 6 µM.
With `COc1ccc(CO)cc1Cl` [3-chloro-p-methoxybenzyl alcohol], the Km with PoAAO [1] amounted to 9 ± 1 µM.

B1: PeAAO (Pleurotus eryngii) (protein)
chain: ADFDYVVVGAGNAGNVVAARLTEDPDVSVLVLEAGVSDENVLGAEAPLLAPGLVPNSIFDWNYTTTAQAGYNGRSIAYPRGRMLGGSSSVHYMVMMRGSTEDFDRYAAVTGDEGWNWDNIQQFVRKNEMVVPPADNHNTSGEFIPAVHGTNGSVSISLPGFPTPLDDRVLATTQEQSEEFFFNPDMGTGHPLGISWSIASVGNGQRSSSSTAYLRPAQSRPNLSVLINAQVTKLVNSGTTNGLPAFRCVEYAEQEGAPTTTVCAKKEVVLSAGSVGTPILLQLSGIGDENDLSSVGIDTIVNNPSVGRNLSDHLLLPAAFFVNSNQTFDNIFRDSSEFNVDLDQWTNTRTGPLTALIANHLAWLRLPSNSSIFQTFPDPAAGPNSAHWETIFSNQWFHPAIPRPDTGSFMSVTNALISPVARGDIKLATSNPFDKPLINPQYLSTEFDIFTMIQAVKSNLRFLSGQAWADFVIRPFDPRLRDPTDDAAIESYIRDNANTIFHPVGTASMSPRGASWGVVDPDLKVKGVDGLRIVDGSILPFAPNAHTQGPIYLVGKQGADLIKADQ
notes: 61,847 Da
On to B1, for which the Km in data set [3] is 94 ± 4 µM; in data set [4], 9 ± 1 µM; in [5], 107 ± 2 µM. The kcat was 119 ± 1 s⁻¹ in data set [3], 34 ± 1 s⁻¹ in data set [4] and 22 ± 1 s⁻¹ in data set [5]. For the same molecule, in data set [5], the kcat/Km was 203 ± 3 mM^-1s^- //.

B2: BaAAO (Bjerkandera adusta) (protein)
chain: MVTFFTDASQLPATVYDFIVVGAGNAGNVVAARLTEDWKTTVLLIEAGISHEGIDSVAVPGLVLDNLPFSPVMWNYTTVPQAALDNRPIPYAKGRVVGGSSSVNFMEYTRSSNTEYDRWANLTGDAGWSWKNMEQYYLKNSRLVPPQDGHNTTGDVDPSVHGYGPVPLSLVGTPNPLDARMRAATQAPGAEFPFQLDMNGGDMIGFGIVQSTILNGERMHSGKAFLEPAMSRPNLHVLIENTVTRLIQTKTTNGLPSFMKVEFARDALSARSVVTATKEVVLSAGSIGTPQILMLSGIGDREELTAIGVNVTVDNPAVGKHLKDHPIMANYFQVNSNETYDDIFRDRDVSNTFLAQWKQNRTGPMVASPSTGLGFFRLPDNDTIFERFADPSPGEGAGHIELILSNQWTPEVQIPPATGSFLTVHAVVVSPASEGTVRLNSTNPFEFPLLDPQLLSSEFDQHTIIHAARLARQFVSSSPWADFVESRTGIIGDTDDDEADLLAAARQATVTIWHPMCTARMAPKGSTDGAIDPDLLVKGVSGLRVIDGAALPAIPATHPMAAIYLLAERGSDLIKQKWKL
notes: 62,610 Da; one cysteine
For the molecule B2, the Km in [6] came out at 1960 ± 100 µM; in data set [7], 854 ± 32 µM; in data set [8], 37 ± 5 µM; in data set [9], 49 ± 4 µM. Further, the kcat in [6] was 38 ± 1 s⁻¹; in data set [7], 42 ± 1 s⁻¹; in [8] it was 13 ± 1 s⁻¹; in data set [9], 37 ± 1 s⁻¹.

These data come from publication PMC10231232, “Expanding the Physiological Role of Aryl-Alcohol Flavooxidases as Quinone Reductases” (Applied and Environmental Microbiology, 2023).
